According to US20200199241A1 (Chugai, published 2020):

B1: IL6R-BP142/IL6R-L (antibody, human IgG1)
heavy: QVQLQESGPGLVKPSETLSLTCAVSGHSISHDHAWSWVRQPPGEGLEWIGFISYSGITNYNPSLQGRVTISRDNSKNTLYLQMNSLRAEDTAVYYCARSLARTTAMDYWGEGTLVTVSSASTKGPSVFPLAPSSKSTSGGTAALGCLVKDYFPEPVTVSWNSGALTSGVHTFPAVLQSSGLYSLSSVVTVPSSSLGTQTYICNVNHKPSNTKVDKKVEPKSCDKTHTCPPCPAPELLGGDSVFLFPPKPKDTLMISRTPEVTCVVVDVSHEDPEVKFNWYVDGVEVHNAKTKPREEQYNSTYRVVSVLTVLHQDWLNGKEYKCKVSNNALPAPIEKTISKAKGQPREPQVYTLPPSRDELTKNQVSLTCLVKGFYPSDIAVEWESNGQPENNYKTTPPVLDSDGSFFLYSKLTVDKSRWQQGNVFSCSVMHEALHNHYTQESLSLSP
light: DIQMTQSPSSLSASVGDRVTITCRASQDISSYLNWYQQKPGKAPKLLIYYTSRLHSGVPSRFSGSGSGTDFTFTISSLQPEDIATYYCQQGNTLPYTFGQGTKVEIK
notes: Alteration introduced into IL6R-B3; also called P238D/K326N
B2: IL6R-BP126/IL6R-L (antibody, human IgG1)
heavy: QVQLQESGPGLVKPSETLSLTCAVSGHSISHDHAWSWVRQPPGEGLEWIGFISYSGITNYNPSLQGRVTISRDNSKNTLYLQMNSLRAEDTAVYYCARSLARTTAMDYWGEGTLVTVSSASTKGPSVFPLAPSSKSTSGGTAALGCLVKDYFPEPVTVSWNSGALTSGVHTFPAVLQSSGLYSLSSVVTVPSSSLGTQTYICNVNHKPSNTKVDKKVEPKSCDKTHTCPPCPAPELLGGDSVFLFPPKPKDTLMISRTPEVTCVVVDVSHEDPEVKFNWYVDGVEVHNAKTKPREEQYNSTYRVVSVLTVLHQDWLNGKEYKCKVSNLALPAPIEKTISKAKGQPREPQVYTLPPSRDELTKNQVSLTCLVKGFYPSDIAVEWESNGQPENNYKTTPPVLDSDGSFFLYSKLTVDKSRWQQGNVFSCSVMHEALHNHYTQESLSLSP
light: DIQMTQSPSSLSASVGDRVTITCRASQDISSYLNWYQQKPGKAPKLLIYYTSRLHSGVPSRFSGSGSGTDFTFTISSLQPEDIATYYCQQGNTLPYTFGQGTKVEIK
notes: Alteration introduced into IL6R-B3; also called P238D/K326L
B3: IL6R-BP198/IL6R-L (antibody, human IgG1)
heavy: QVQLQESGPGLVKPSETLSLTCAVSGHSISHDHAWSWVRQPPGEGLEWIGFISYSGITNYNPSLQGRVTISRDNSKNTLYLQMNSLRAEDTAVYYCARSLARTTAMDYWGEGTLVTVSSASTKGPSVFPLAPSSKSTSGGTAALGCLVKDYFPEPVTVSWNSGALTSGVHTFPAVLQSSGLYSLSSVVTVPSSSLGTQTYICNVNHKPSNTKVDKKVEPKSCDKTHTCPPCPAPDYLGGDSVFLFPPKPKDTLMISRTPEVTCVVVDVSDEDGEVKFNWYVDGVEVHNAKTKPREEQYNSTYRVVSVLTVLHQDWLNGKEYKCKVSNAALPKPIEKTISKAKGQPREPQVYTLPPSRDELTKNQVSLTCLVKGFYPSDIAVEWESNGQPENNYKTTPPVLDSDGSFFLYSKLTVDKSRWQQGNVFSCSVMHEALHNHYTQESLSLSP
light: DIQMTQSPSSLSASVGDRVTITCRASQDISSYLNWYQQKPGKAPKLLIYYTSRLHSGVPSRFSGSGSGTDFTFTISSLQPEDIATYYCQQGNTLPYTFGQGTKVEIK
notes: Anti-IL-6R human IgG1 variant; copies: 2 + 2
B4: IL6R-BP207/IL6R-L (antibody, human IgG1)
heavy: QVQLQESGPGLVKPSETLSLTCAVSGHSISHDHAWSWVRQPPGEGLEWIGFISYSGITNYNPSLQGRVTISRDNSKNTLYLQMNSLRAEDTAVYYCARSLARTTAMDYWGEGTLVTVSSASTKGPSVFPLAPSSKSTSGGTAALGCLVKDYFPEPVTVSWNSGALTSGVHTFPAVLQSSGLYSLSSVVTVPSSSLGTQTYICNVNHKPSNTKVDKKVEPKSCDKTHTCPPCPAPDLLGGDSVFLFPPKPKDTLMISRTPEVTCVVVDVSHEDPEVKFNWYVDGVEVHNAKTKPREEQYNSTYRVVSVLTVLHQDWLNGKEYKCKVSNKALPRPIEKTISKAKGQPREPQVYTLPPSRDELTKNQVSLTCLVKGFYPSDIAVEWESNGQPENNYKTTPPVLDSDGSFFLYSKLTVDKSRWQQGNVFSCSVMHEALHNHYTQESLSLSP
light: DIQMTQSPSSLSASVGDRVTITCRASQDISSYLNWYQQKPGKAPKLLIYYTSRLHSGVPSRFSGSGSGTDFTFTISSLQPEDIATYYCQQGNTLPYTFGQGTKVEIK
notes: as for B3

Experiments:
human FcγRIIa type R = target: T1, human FcγRIIa type R (human, UniProt P12318 36-217); experiment: SPR (Biacore), binding amount relative to IL6R-BF648/IL6R-L = 100
T1 construct: also called FcγRIIaR; FcγRIIa(R)
T1 chain: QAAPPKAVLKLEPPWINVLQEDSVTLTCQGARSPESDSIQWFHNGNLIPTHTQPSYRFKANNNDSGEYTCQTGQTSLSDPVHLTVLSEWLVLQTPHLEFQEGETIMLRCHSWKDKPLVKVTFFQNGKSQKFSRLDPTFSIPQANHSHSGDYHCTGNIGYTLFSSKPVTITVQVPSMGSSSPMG

human FcγRIIa type H = target: T2, human FcγRIIa type H (human, UniProt P12318 36-217); experiment: as above
T2 construct: also called FcγRIIaH; FcγRIIa(H)
T2 sequence: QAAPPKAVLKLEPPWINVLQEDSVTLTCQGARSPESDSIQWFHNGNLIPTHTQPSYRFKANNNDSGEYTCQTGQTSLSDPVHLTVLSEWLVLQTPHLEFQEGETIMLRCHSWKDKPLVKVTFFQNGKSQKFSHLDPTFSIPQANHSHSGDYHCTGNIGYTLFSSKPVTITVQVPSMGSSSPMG

human FcγRIa = target: T3, human FcγRIa (human, UniProt P12314 16-292, limits assumed); experiment: as above
T3 construct: also called CD64

human FcγRIIb = target: T4, human FcγRIIb (human, UniProt P31994 43-217, limits assumed); experiment: as above
T4 construct: also called FcγIIB
T4 sequence: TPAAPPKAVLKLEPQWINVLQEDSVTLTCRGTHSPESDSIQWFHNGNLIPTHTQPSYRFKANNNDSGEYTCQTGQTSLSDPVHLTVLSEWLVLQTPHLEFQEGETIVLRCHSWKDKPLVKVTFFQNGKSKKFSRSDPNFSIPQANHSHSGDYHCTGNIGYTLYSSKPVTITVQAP

FcγRIIIa type V = target: T5, FcγRIIIa type V (human, UniProt P08637 17-208, limits assumed); experiment: SPR (Biacore), method of Example 14
T5 construct: also called FcγRIIIaV; FcγRIIIa(V)
Source text: (§1) Furthermore, KD(IIaR)/KD(IIb) and KD(IIaH)/KD(IIb) in the table respectively represent the value obtained by dividing the KD value of each variant for FcγRIIaR by the KD value of each variant for FcγRIIb, and the value obtained by dividing the KD value of each variant for FcγRIIaH by the KD value of each variant for FcγRIIb. KD(IIb) of the parent polypeptide/KD(IIb) of the altered polypeptide refers to the value obtained by dividing the KD value of the parent polypeptide for FcγRIIb by the KD value of each variant for FcγRIIb.

FcγRIa = target: T6, FcγRIa (human, UniProt P12314 16-292, limits assumed); experiment: SPR (Biacore), method of Example 14
T6 construct: also called CD64
Source text: as §1

FcγRIIb [1] = target: T7, FcγRIIb (human, UniProt P31994 43-217, limits assumed); experiment: SPR (Biacore), method of Example 14
T7 construct: also called FcγIIB; CD32
T7 sequence: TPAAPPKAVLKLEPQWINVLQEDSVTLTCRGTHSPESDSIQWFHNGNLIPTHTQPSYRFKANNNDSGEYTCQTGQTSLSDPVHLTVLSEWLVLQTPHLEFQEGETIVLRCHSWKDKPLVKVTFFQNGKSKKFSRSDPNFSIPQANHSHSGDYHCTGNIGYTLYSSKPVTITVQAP
Source text: as §1

FcγRIIa type H = target: T8, FcγRIIa type H (human, UniProt P12318 36-217); experiment: SPR (Biacore), method of Example 14
T8 construct: also called FcγRIIaH; FcγRIIa(H)
T8 sequence: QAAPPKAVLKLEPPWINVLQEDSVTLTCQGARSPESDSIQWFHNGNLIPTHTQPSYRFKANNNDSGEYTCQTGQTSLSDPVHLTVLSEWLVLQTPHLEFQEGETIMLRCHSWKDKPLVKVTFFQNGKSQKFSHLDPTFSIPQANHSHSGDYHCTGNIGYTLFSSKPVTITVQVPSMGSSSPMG
Source text: as §1

FcγRIIb [2] = target: T7, FcγRIIb; experiment: ratio of SPR KD values, parent IL6R-B3/IL6R-L
FcγRIIa type R = target: T9, FcγRIIa type R (human, UniProt P12318 36-217); experiment: SPR (Biacore), method of Example 14
T9 construct: also called FcγRIIaR; FcγRIIa(R)
T9 chain: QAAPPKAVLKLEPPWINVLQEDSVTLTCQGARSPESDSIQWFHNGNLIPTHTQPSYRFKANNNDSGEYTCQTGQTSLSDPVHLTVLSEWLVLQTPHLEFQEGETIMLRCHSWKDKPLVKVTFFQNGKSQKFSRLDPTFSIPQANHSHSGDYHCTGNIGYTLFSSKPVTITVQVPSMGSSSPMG
Source text: as §1

T5 sequence (P08637 17-208 F176V limits assumed): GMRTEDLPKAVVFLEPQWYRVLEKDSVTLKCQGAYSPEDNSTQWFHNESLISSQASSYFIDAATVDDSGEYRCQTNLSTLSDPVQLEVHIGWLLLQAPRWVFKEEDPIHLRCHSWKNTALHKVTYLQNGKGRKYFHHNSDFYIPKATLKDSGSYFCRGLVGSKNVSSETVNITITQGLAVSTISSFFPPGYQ
T6 sequence (P12314 16-292 limits assumed): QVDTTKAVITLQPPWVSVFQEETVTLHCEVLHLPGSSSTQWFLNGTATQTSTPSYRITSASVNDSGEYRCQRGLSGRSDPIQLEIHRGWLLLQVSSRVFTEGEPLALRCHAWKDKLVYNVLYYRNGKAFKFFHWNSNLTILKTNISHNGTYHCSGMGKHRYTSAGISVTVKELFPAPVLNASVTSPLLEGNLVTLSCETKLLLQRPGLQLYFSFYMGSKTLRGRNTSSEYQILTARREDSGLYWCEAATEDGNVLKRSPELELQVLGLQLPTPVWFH
T3 sequence (P12314 16-292 limits assumed): as above

Binder	relative binding (human FcγRIIa type R)	relative binding (human FcγRIIa type H)	relative binding (human FcγRIa)	relative binding (human FcγRIIb)	Kd (FcγRIIIa type V) [µM]	Kd (FcγRIa) [µM]	Kd (FcγRIIb [1]) [µM]	Kd (FcγRIIa type H) [µM]	KD(IIb) of the parent polypeptide/KD(IIb) of altered polypeptide (FcγRIIb [2]) [fold]	Kd (FcγRIIa type R) [µM]
B1	103	97	98	106						
B2	167	132	113	103						
B3					44	0.011	0.2	20	15.7	
B4					65	0.022	0.84	29	3.7	19
